B1: H2aM11829N (antibody, V domains shown)
VH: QVHLVQSGPEVKKPGSSVKVSCKASGVTFISHAISWVRQAPGQGLEWVGGIIAIFGTTNYAQKFQGRVTVTTDKSTNTVYMELSRLRSEDTAIYYCARGETYYEGNFDFWGQGTLVTVSS
VL: VIQMTQSPSSLSASVGDRVTITCRASQSVRSNLNWYQQTPGKAPRLLIYAASSLQSGVPSRFSGSGSGTDFTLTISSLQPEDFATYYCQQSYSTPPITFGQGTRLEIK
B2: H1H11729P (antibody, V domains shown)
VH: QVQLVQSGAEVKKSGSSVKVSCKASGGTFSSYAISWVRQAPGQGLEWMGGIIPIFGTPSYAQKFQDRVTITTDESTSTVYMELSSLRSEDTAVYYCARQQPVYQYNMDVWGQGTTVTVSS
VL: DIQMTQSPSSLSASVGDRVTITCRASQGIRNNLGWYQQKPLKAPKRLIYAASSLQSGVPSRFSGSGSGTEFTLTISSLQPEDFATYYCLQYNNYPWTFGQGTKVEIK

Key:
Experiment in all cases: cell-based or functional assay
[1] = target: Hemagglutinin of H1-WS33 virus (Influenza A virus (H1-WS33))
[2] = target: Hemagglutinin of H9-RG26 virus (Influenza A virus (H9-RG26))
[3] = target: Hemagglutinin of H1-IVR148 virus (Influenza A virus (H1-IVR148))
[4] = target: Hemagglutinin of H13-MD77 virus (Influenza A virus (H13-MD77))
[5] = target: Hemagglutinin of H1N1 A/California/07/2009 virus (Influenza A virus A/California/07/2009 …)
[6] = target: Hemagglutinin of H16-DE09 virus (Influenza A virus (H16-DE09))

Row | Binder | IC50 (nM), cell viability microneutralization assay (MDCK) [1] [nM] | IC50 (nM), cell viability microneutralization assay (MDCK) [2] [nM] | IC50 (nM), cell viability microneutralization assay (MDCK) [3] [nM] | IC50 (nM), cell viability microneutralization assay (MDCK) [4] [nM] | IC50 (nM), cell viability microneutralization assay (MDCK) [5] [nM] | IC50 (nM), cell viability microneutralization assay (MDCK) [6] [nM]
1 | B1 | 1.68 | 10.2 | 48 | 2.11 | 3.5 | 7.39
2 | B2 | 2.47 | 14.9 | 130 | 33.8 | 4.54 | 21.6

— patent US20160176953A1 (Regeneron, published 2016)
